# Several values for one entry are separate records, joined by “and”; a condition that tells them apart may be missing. Equal values may be shown once. Read-outs that look alike come from different tables or passages of the source.
# How the values were obtained:
# Asp455 = Asp455 (UniProt position 474, KPVMLDLYADW); experiment: NMR; conditions: 298 K, isolated domain, folded
# Asp26 = Asp26 (UniProt position 26, KLVVVDFSATW); conditions: cited from earlier work
# Cys32 = Cys32 (UniProt position 32, FSATWCGPCKM); conditions: reduced human thioredoxin; cited from earlier work
# Cys461 = Cys461 (UniProt position 480, LYADWCVACKE); experiment: NMR; conditions: 298 K, isolated domain, folded
# Cys30 = Cys30 (UniProt position 49, FFSFFCPHCYQ); conditions: cited from earlier work
# Cys69 = Cys69 (UniProt position 69, FGDYKCPSCKV); conditions: cited from earlier work
# [1] = not stated, 1 mM protein, oxidised (Cys-461-Cys-464 disulfide)
# [2] = oxidised (Cys-461-Cys-464 disulfide)
# [3] = not stated, 1 mM protein, reduced (dithiol)
substance,measurement,setting,value
"DsbD C-terminal domain, Q488A variant (Q488A-cDsbD) (Escherichia coli; Q488A)",pKa,Asp455; [1],7.7 and 7.5
same,pKa,Asp455; [2],8.0 ± 0.3
"Thioredoxin (Trx1), human (Homo sapiens)",pKa,Asp26; oxidised human thioredoxin,8.1
same,pKa,Asp26; reduced human thioredoxin,9.9
same,pKa,Cys32,6.3
"DsbD C-terminal domain, Q488K variant (Q488K-cDsbD) (Escherichia coli; Q488K)",pKa,Asp455; [1],8.0
same,pKa,Asp455; [3],7.2 and 7.1
same,pKa,Asp455; [2],8.1 ± 0.2
same,pKa,Asp455; reduced (dithiol),7.5 ± 0.4
same,pKa,"Cys461; not stated (pH adjusted with 0.1 M DCl or NaOD), 1 mM protein, reduced (Cys-461/Cys-464 dithiol)",10.3 and 10.5 and 10.4
same,pKa,Cys461; [3],10.9
same,pKa,Cys461; reduced (dithiol),10.5 ± 0.2
Thiol:disulfide interchange protein DsbA (Escherichia coli),pKa,Cys30,3.5
Disulfide bond formation protein D (BdbD) (Bacillus subtilis),pKa,Cys69,less than 4.5
